Positions of bridges follow the written chain, without caps; N, C: chain ends. No end group written: not given here.

The labels stand for the following.
B1: peptide 32814 (peptide)
peptide: RKLDTFFVKLSLFTERRR
notes: K1R and two added C-terminal R against P28R
B2: cyclic peptide CLALNVMCG (peptide)
peptide: CLALNVMCG
modifications: bridge 1-8 (inferred); not fully specified
notes: also called lead cyclic peptide; lead looped peptide

The first assay addresses T1, His-tagged P3028 (human, also: His-tag, terminus and sequence not given here).
T1 construct: used in solution in the PEPSCAN (rampo) ELISA; also called PGE73; His-tag-P3028; not shown: His tag
T1 peptide: VFDEFKPLVEEPQNLIK
In words: ELISA on chip with His-tag labeled P3028. Background: ELISA stands for enzyme-linked immunosorbent assay.
Take CLALNVMCG (bridge 1-8 (inferred), also called lead looped peptide) [lead cyclic peptide CLALNVMCG]: the binding result is “binds”.

The target of the next assay is T2, fusion protein of CD25 and the Fc-part of IgG (human, UniProt P01589 22-240, limits assumed).
T2 construct: also called rhuIL-2R alpha; rhuIL-2R
T2 sequence: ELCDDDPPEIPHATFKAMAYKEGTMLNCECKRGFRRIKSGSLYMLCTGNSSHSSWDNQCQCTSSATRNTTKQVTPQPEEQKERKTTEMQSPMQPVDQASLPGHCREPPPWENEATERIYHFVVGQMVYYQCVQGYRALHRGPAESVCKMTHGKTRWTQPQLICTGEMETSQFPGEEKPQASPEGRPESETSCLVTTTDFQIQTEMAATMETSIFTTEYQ
In words: ELISA, CD25-Fc on protein G coated plates, biotinylated IL-2 with or without P3028.
As to VFDEFKPLVEEPQNLIK [P3028], the binding result is reported as “binds”.

The target in the next assay is T3, His-tagged P3028 (human, not fully specified).
T3 construct: the tag is put first after 'PGE73=His-tag-P3028'; also called PGE73; not shown: His-tag
T3 peptide: {His‑tag}-VFDEFKPLVEEPQNLIK
In words: chip ELISA with His-tag labelled P3028, positional scan.
Regarding CLRLIVMCG (bridge 1-8 (inferred); not fully specified), the binding result is recorded as “binds”. Take CLRLNVFCG (bridge 1-8 (inferred); not fully specified): the binding result is “binds”.

The target in the next assay is T4, His-tagged P3028 peptide (PGE73) (human).
T4 construct: also called His-tag-P3028; not shown: His-tag
T4 peptide: VFDEFKPLVEEPQNLIK
In words: positional scan, PEPSCAN ELISA on chip.
Consider B1, for which the binding result is recorded as “binds”.

Turning to KKLDTVMVKLQLMTER (Four changes against P28R) [peptide 30680], the binding result was “binds”.

Another assay deals with T1, His-tagged P3028. In words: positional scan, ELISA on chip with His-tag labeled P3028.
Protocol: (§1) Positional scans were performed in each position of the lead cyclic peptide was replaced with each of the other 19 L-amino acids.
Consider CLRLNVFCG (bridge 1-8 (inferred)), for which the binding result is on record as “binds”. On the same count and under the same terms, the entry for CLRLIVMCG (bridge 1-8 (inferred)) is “binds”.

A further assay has as its target Artificial Cell Surface (ACS): biotinylated cell surface proteins of PBMCs bound to streptavidin columns. In words: Asp-N-digested dHSA adsorbed on ACS column, MALDI-TOF ms.
DRVTKCCTESLVNRRPCFSALEV [Asp-N-generated albumin fragment 495-517] showed a Percent Absorbed of 87%.

Regarding DDKETCFAEEGKKLVAASQAALGL [Asp-N-generated albumin fragment 586-609], the Percent Absorbed was 100%.

DKLCTVATLRETYGEM [Asp-N-generated albumin fragment 96-112] came in with a Percent Absorbed of 65%. Still for that read-out and setting: in the case of YSVVLLLRLAKTYETTLEKCCAAADPHECYAKVF [Asp-N-generated albumin fragment 364-398] it was 100%.

As for YLSVVLNQLCVLHEKTPVSDRVTKCCCTESLVNRRPFSALEV [Asp-N-generated albumin fragment 475-517], the Percent Absorbed is 37%. Same read-out and setting: the figure for DHVKLVNEVTEFAKTCVA [Asp-N-generated albumin fragment 62-79] is 100%; for LGEENFKALVLIAFAQYLQQCPFEDHVKLVNEVTEFAKTCVA [Asp-N-generated albumin fragment 37-79] it is 100%; for KLCTVATLRETYGEMADCCAKQEPERNECFLQHK [Asp-N-generated albumin fragment 96-130] it is 100%. DETYVPKEFNAETFTHA [Asp-N-generated albumin fragment 518-535]: the Percent Absorbed was determined as 86%. The same measure, in the same setting: in the case of RVTKCCTESLVNRRPCFSALEVDETYVPKEFNAETFTFHA [Asp-N-generated albumin fragment 495-535] it was 100%; in that of LAKYICENQDSISSKLKECCEKPLLEKHCIAEVEN [Asp-N-generated albumin fragment 283-319], 100%. With DSISSKLKECCEKPLLEKSHCIAEVEN [Asp-N-generated albumin fragment 293-319], the Percent Absorbed is 65%. In turn, ICTLSEKERQIKKQTALVELVKHKPKATKEQLKAVM [Asp-N-generated albumin fragment 536-572] came in with a Percent Absorbed of 100%. Still for that read-out and setting: the figure for VFLGMFLYEYARRHPDYSVVLLLRLAKTYETTLEKCCAAA [Asp-N-generated albumin fragment 348-388] is 100%.

A further assay shares this target. The assay can be described thus: trypsin-digested dHSA adsorbed on ACS column, MALDI-TOF ms.
Molecule VFDEFKPLVEEPQNLIK gave a Percent Absorbed of 60%. The same measure, in the same setting: in the case of FQNALLVR [albumin fragment FQNALLVR] it was 41%; in that of VPQVSTPTLVEVSR, 59%. As for LCTVATLR [albumin fragment LCTVATLR], the Percent Absorbed turned out to be 35%.

Molecule SLHTLFGDK returned a Percent Absorbed of 36%.

In turn, LKECCEKPLLEK yielded a Percent Absorbed of 36%. RPCFSALEVDETYVPK came in with a Percent Absorbed of 42%.

For the next assay, the target named is T3, His-tagged P3028. In words: chip ELISA with His-tag labelled P3028.
Protocol: as §1
In the case of B2, the binding result is given as “binds”.

For a further assay, the target named is T1, His-tagged P3028. In words: positional scan / PEPSCAN ELISA.
Consider FFVKLS (also called peptide 32230; FFVKLS) [P28 core], for which the binding result is “binds”.

(Values after patent US20170298096A1 (CANIMGUIDE THERAPEUTICS, published 2017).)
